The values that follow come from patent publication US20080300385A1.

pKd: −log10 of the molar value.

Assay [1] addresses Tat protein from HIV-1 strain BH10 (HIV-1 strain BH10) (UniProt P69697). The assay is described as follows: ITC in free solution (FIG. 7).
Assay [2] has the same target. Briefly: SPR, kinetic experiment (FIG. 5B). On the technique in general: Surface plasmon resonance follows binding to a sensor surface in real time, without labels.

In general, pKd refers to the negative decadic logarithm of the Kd, by convention in mol/L. The substance “gp140 Env protein from HIV-1 strain SF162 (o-gp140SF162), trimer (from UniProt P19550 32-675)” showed a stoichiometry (Tat molecules per Env trimer) (Tat molecules per Env trimer) in assay [1] of 3. In addition, the pKd in assay [2] was 7.43.
